# B1: Fork 1 (mixed)
# DNA 1: CTAGAGACGCTGCCGAATTCTGGCTTGGATCTGATGCTGTCTAGAGGCCTCCACTATGAAATCGCTGCA
# DNA 2: CCGGGCTGCAGAGCTCATAGATCGATAGTCTCTAGACAGCATCAGATCCAAGCCAGAATTCGGCAGCGTCT
# Molecular target: PriA helicase (UniProt P17888 1-732)
# Test: ATPase DNA titration
# PriA helicase, sequence (P17888 whole entry): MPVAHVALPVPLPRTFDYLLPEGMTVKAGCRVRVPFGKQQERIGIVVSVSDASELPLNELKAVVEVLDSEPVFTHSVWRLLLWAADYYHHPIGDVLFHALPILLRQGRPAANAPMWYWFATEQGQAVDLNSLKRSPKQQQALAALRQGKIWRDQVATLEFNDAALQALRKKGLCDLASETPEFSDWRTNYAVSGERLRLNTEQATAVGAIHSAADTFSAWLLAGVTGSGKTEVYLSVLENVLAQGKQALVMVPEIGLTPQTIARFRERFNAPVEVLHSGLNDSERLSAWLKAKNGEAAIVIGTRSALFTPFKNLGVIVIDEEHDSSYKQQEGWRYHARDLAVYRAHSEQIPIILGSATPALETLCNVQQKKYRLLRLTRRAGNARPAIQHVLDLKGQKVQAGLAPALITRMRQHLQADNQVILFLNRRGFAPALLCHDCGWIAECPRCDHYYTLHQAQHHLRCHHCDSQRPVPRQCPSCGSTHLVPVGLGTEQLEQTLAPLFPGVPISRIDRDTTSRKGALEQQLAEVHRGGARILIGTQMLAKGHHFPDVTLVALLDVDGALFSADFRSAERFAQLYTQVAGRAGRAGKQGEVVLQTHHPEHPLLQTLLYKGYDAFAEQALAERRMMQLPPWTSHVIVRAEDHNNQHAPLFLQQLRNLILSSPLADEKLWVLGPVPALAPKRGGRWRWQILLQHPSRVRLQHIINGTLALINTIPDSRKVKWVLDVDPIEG
binder,measurement,value
B1,apparent K (half saturation),5.7 ± 0.7 nM
